# According to the RNAGym collection of RNA variant scans (doi:10.7554/elife.80360):
# B1: Hairpin Ribozyme (parent)
# chain: GUCCUCUUUCACGUGCGCGUGAAAGAGAGAAGUGAACCAGAGAAACACACGUUGUGGUAUAUUACCUGGUA
# Variants of: B1
# Assay: self-cleavage, relative activity (ratio to wild type); higher = more cleavage; co-transcriptional
row,Variant,self-cleavage
1,C6G G57U,0.238
2,C6U G54A,0.59
3,C6U G54U,0.371
4,U7A U8G,0.925
5,U7C G32A,0.0904
6,C6U C65A,0.776
7,U7G A41U,1.12
8,U7G A41G,0.946
9,U7G A41C,0.863
10,U7A A59G,0.194
11,U7A A59C,0.136
12,C6U A22G,0.796
13,U7A G40C,0.166
14,U7A G40U,0.18
15,C6G U70G,0.361
16,C6G U70A,0.399
17,U7C A64U,0.0591
18,U8A G21A,0.618
19,U7A G56A,0.182
20,U7C A41G,0.845
21,U7G G40A,0.308
22,U7G G40C,0.207
23,C6U U67A,0.151
24,C6U U67C,0.222

row,Variant,self-cleavage
1,U7G A64U,0.143
2,U7G A64C,0.24
3,U7A C16U,0.85
4,U7A C16G,0.779
5,U7G U52G,0.779
6,C6U A31U,0.101
7,U7C G69U,0.179
8,U7A G25C,0.402
9,U7G A61G,0.0998
10,U7A A26G,0.71
11,U7C C37U,0.494
12,U7G G51A,0.891
13,U7G C16U,0.932
14,U7G C16G,0.689
15,U7G A45C,0.0973
16,U7G A45G,0.102
17,U7A A45G,0.204
18,U7A A45U,0.261
19,C6U G51U,0.88
20,C6U U60G,0.502
21,C6U U60A,0.732
22,U7G U60C,1.12
23,U7A C18U,0.8
24,U7C G68U,0.171

row,Variant,self-cleavage
1,U7C G68A,0.339
2,U7A A11G,0.855
3,U7A A11U,0.649
4,U7G A36C,0.669
5,C6U A44G,0.132
6,C6U A44C,0.119
7,C6G G25A,0.523
8,C6U U7A,0.515
9,U7G G21C,0.332
10,U7C A22U,0.642
11,U8A A43G,0.13
12,U7C G13C,0.518
13,U8A A61U,0.191
14,U7G U53C,0.84
15,U7A G68U,0.238
16,U7A C12G,0.662
17,U7C A31C,0.112
18,C6G G40U,0.103
19,U7G G15U,0.955
20,U7C G34C,1.37
21,C6U G13A,0.712
22,C6U G13C,0.65
23,U7C G25U,0.494
24,U7C G25A,0.306

row,Variant,self-cleavage
1,U7A U9A,0.666
2,U7A U9C,0.714
3,U7A U9G,0.579
4,U8A A22U,0.891
5,U7A G32C,0.143
6,C6G G54C,0.265
7,U7C G54U,0.242
8,U7C G54C,0.683
9,C6U U63A,0.207
10,U7G G13A,0.704
11,U7C U58C,0.775
12,U8A A26U,0.421
13,U8A A26C,0.334
14,U8A G15U,0.888
15,U7C G51C,0.489
16,U7C G51U,1.1
17,C6U G17U,0.859
18,U7G C46A,0.0994
19,C6U G34C,1.1
20,C6U G34A,0.863
21,C6U A35U,0.765
22,U7G A44G,0.16
23,U7C U20G,0.751
24,C6G G69A,0.251

row,Variant,self-cleavage
1,U7A A64C,0.194
2,C6U U14A,0.853
3,C6U U14C,0.932
4,C6U U14G,0.791
5,U7G U20C,0.798
6,U7C U62A,0.288
7,U7G U62A,0.101
8,U7G U62C,0.0811
9,U7C A59U,0.178
10,U7G C66A,0.205
11,U7A A71U,0.814
12,U7A A71G,0.895
13,U7C A23C,0.455
14,C6U G21C,0.597
15,U8A C66U,0.238
16,U8A C66A,0.128
17,U8A C66G,0.101
18,U7C A24G,0.628
19,U7A A43G,0.222
20,U7A G29A,0.099
21,U7A G29U,0.178
22,C6G G21U,0.181
23,C6G G21C,0.125
24,C6U G40A,0.344

row,Variant,self-cleavage
1,U7C G29A,0.204
2,U7C G29U,0.178
3,C6U G19U,0.715
4,U7C G17C,0.527
5,C6U U33G,0.126
6,U7A U60A,0.893
7,U7A A24G,0.702
8,U7C G40C,0.156
9,U7C C12A,0.516
10,C6U A43U,0.119
11,U7C G56U,0.188
12,U7C G21C,0.962
13,C6G U60C,0.618
14,U7G A30U,0.0317
15,U8A A71C,1.23
16,U8A A28G,0.684
17,U7G G69C,0.191
18,U7G G69U,0.166
19,U7G G69A,0.398
20,U7A G13A,0.962
21,U7A A49G,0.49
22,U7A A49U,0.16
23,U8A A31U,0.135
24,U8A A31G,0.448

row,Variant,self-cleavage
1,C6U A39U,0.381
2,C6U C46U,0.176
3,U7G U70G,0.917
4,U7G U70C,0.838
5,U7G G27C,0.152
6,U7G G27U,0.226
7,U7A A36C,0.573
8,C6U G25U,0.762
9,C6U G25A,0.751
10,C6U C10G,0.416
11,U8A A47G,0.187
12,C6U C37G,0.372
13,U8A G27U,0.208
14,U7G U63C,0.143
15,U7G C48G,0.153
16,U7G A47G,0.174
17,U7A A35G,0.796
18,U7G C65A,0.975
19,U7G C65G,0.31
20,U7A U55A,0.152
21,U7A U55G,0.205
22,U7A U55C,0.175
23,U7G U67C,0.217
